Measured values published in PMC2373884.

Assays:
[1] = biological target: cyclooxygenase-2 (COX-2), endogenous in human neutrophils (human (endogenous in neutrophils)) (UniProt P35354)
[2] = biological target: cyclooxygenase-2 (COX-2), endogenous in human neutrophils (human (endogenous in neutrophils)) (UniProt P35354); remark: listed apart in the source

UniProt P35354, sequence (P35354 18-604): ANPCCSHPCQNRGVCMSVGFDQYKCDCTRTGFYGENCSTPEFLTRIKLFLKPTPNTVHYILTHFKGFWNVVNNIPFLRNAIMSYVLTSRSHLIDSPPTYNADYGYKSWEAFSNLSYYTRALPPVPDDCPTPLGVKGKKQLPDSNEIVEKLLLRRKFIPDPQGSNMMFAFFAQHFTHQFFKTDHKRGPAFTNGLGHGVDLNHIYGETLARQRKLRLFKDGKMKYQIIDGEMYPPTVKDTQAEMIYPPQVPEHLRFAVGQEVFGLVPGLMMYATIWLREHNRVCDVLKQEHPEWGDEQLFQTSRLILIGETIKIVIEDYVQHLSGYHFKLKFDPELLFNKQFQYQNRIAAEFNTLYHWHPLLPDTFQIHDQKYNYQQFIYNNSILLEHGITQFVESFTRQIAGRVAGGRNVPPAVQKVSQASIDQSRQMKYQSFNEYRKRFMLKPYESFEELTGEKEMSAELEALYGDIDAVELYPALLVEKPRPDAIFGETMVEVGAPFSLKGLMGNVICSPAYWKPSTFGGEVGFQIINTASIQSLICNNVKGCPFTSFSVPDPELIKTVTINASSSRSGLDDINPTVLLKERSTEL

PGE2 production (ELISA) from arachidonic acid (10 µM) by purified human recombinant COX-2 (1 U/sample, Cayman) with increasing amounts of hrNuc (fold over basal levels) [1]: 4 | PGE2 production (ELISA) from arachidonic acid (10 µM) by lysates of COX-2-expressing neutrophils with increasing quantities of hrNuc [2]: 5 fold
Substance: human recombinant nucleobindin (hrNuc), full length (from UniProt Q02818 27-461) (natural protein)
